The values that follow come from paper PMC4279229 (Molecular Biology of the Cell, 2015).

The target of the test is mouse VASP (wild-type, full-length) (mouse, UniProt P70460 1-375). As to the kind of experiment: immunolabeling of protein-coated beads.
Chain of mouse VASP (wild-type, full-length) (P70460 whole entry): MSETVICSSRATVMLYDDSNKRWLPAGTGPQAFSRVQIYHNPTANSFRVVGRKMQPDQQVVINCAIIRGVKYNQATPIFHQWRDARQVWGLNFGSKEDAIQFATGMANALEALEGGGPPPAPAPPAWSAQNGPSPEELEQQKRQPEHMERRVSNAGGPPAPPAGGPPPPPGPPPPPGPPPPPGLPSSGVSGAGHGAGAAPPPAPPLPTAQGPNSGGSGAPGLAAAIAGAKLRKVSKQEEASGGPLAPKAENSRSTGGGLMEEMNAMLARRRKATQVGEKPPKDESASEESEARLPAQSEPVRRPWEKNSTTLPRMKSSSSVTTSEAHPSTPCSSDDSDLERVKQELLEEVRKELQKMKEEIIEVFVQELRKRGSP

B1: PRD-VCA-WAVE (PRD-VCA domain of human WAVE-2, Lys195-Asp498) (domain or fragment, UniProt Q9Y6W5 195-498, looked up)
chain: KIKTRKEEWEKMKMGQEFVESKEKLGTSGYPPTLVYQNGSIGCVENVDASSYPPPPQSDSASSPSPSFSEDNLPPPPAEFSYPVDNQRGSGLAGPKRSSVVSPSHPPPAPPLGSPPGPKPGFAPPPAPPPPPPPMIGIPPPPPPVGFGSPGTPPPPSPPSFPPHPDFAAPPPPPPPPAADYPTLPPPPLSQPTGGAPPPPPPPPPPGPPPPPFTGADGQPAIPPPLSDTTKPKSSLPAVSDARSDLLSAIRQGFQLRRVEEQREQEKRDVVGNDVATILSRRIAVEYSDSEDDSSEFDEDDWSD
As to B1, the binding result is “binds”.
